{
  "source": "patent US12024544B2",
  "about": "“CCN3 and CCN3 peptides and analogs thereof for therapeutic use” (Rosalind Franklin University of Medicine & Science, priority 2010, dated 2024)",
  "key": {"human skin fibroblasts": {"system": "human skin fibroblasts", "test": "human skin fibroblast proliferation", "assay_type": "cell-based", "source_text": "(§1) To test this we used a cell culture model of skin healing/scarring, which employed the use of primary human skin fibroblasts derived from foreskins collected post circumcision. These have been used extensively in the past to grown in culture and treated with agents that are known to drive wound healing and or scarring. We were also interested in a rare form of skin fibrosis/scarring that can lead to systemic disease and death known as nephrogenic systemic fibrosis (NSF). NSF is a complication of NMR diagnostics in renal impaired patients, where gadolinium (GAD), a heavy metal, is used as a contrast agent, but in some cases appears to deposit in skin. Although the mechanism for development of skin fibrosis and subsequent systemic disease is not yet completely understood, we have developed a model that has allowed elucidation of the probable pathway to skin fibrosis (Bhagavathula, N., M. K. Dame, M. DaSilva, W. Jenkins, M. N. Aslam, P. Perone and J. Varani (2010)). “Fibroblast response to gadolinium: role for platelet-derived growth factor receptor.” Invest Radiol 45(12): 769-777). This disease is characterized as a hyperproliferative disease, and in our model it was shown that PDGF produced by resident skin fibroblasts are stimulated by GAD to increase their production of PDGF which acts to induce proliferation and the increased production of MMPs, regulators of ECM breakdown and thus turnover, including the major MMP, MMP-1. At the same time tissue inhibitors of MMPs (TIMPs) are also affected by exposure to GAD. […] It appears that local fibroblasts then respond to this increased TGF-beta by increasing their production of ECM, including predominantly collagen type 1.\n(§2) We examined the role of CCN3 and CCNp in fibroproliferative/fibrotic responses in human dermal fibroblasts exposed to Omniscan, one of the gadolinium-based contrast agents associated with development of nephrogenic systemic fibrosis. These studies were carried out as we have previously described (Riser, B. L., N. Bhagavathula, P. Perone, K. Garchow, Y. Xu, G. J. Fisher, F. Najmabadi, D. Attili and J. Varani (2012)). “Gadolinium-induced fibrosis is counter-regulated by CCN3 in human dermal fibroblasts: a model for potential treatment of nephrogenic systemic fibrosis.” J Cell Commun Signal 6(2): 97-105.). In our studies, human dermal fibroblasts were exposed to Omniscan; or to PDGF and TGF-β1 as controls. Cellular proliferation was assessed along with MMP-1 (by ELISA and gelatin zymography), TIMP-1 (by ELISA) and COL1 (by ELISA) in the absence and presence of CCN3 and CCNp. CCN3 and CCNp38 was added to cells at 10 nM concentration and at the same time as PDGF. In parallel, CCN3 production was assessed in control and Omniscan-treated cells. In most case the results shown (each bar) are the mean of 3-5 separate experiments, using fibroblasts from different donors. CCN3 was produced in our laboratory from the human embryonic kidney cell line (HEK-293) transfected with the complete human CCN3 gene, and producing an approximate 55 kDa, full-length CCN3 product. A second source of CCN3 was obtained from Pepro Tech Corporation (Rocky Hill, NJ) and is produced in a prokaryote cell line.\n(§3) Next we created and tested for efficacy, additional CCNp including those with the cysteines intact (native sequence) from CCNp37 and CCNp38 and those that were modified by either shortening the peptide by 1 or 2 amino acids or lengthening by one amino acid. These agents were added to human skin fibroblasts in increasing concentrations from 1 nM to 100 nM and compared to the equal concentration of CCN3 (SEQ. ID. NO: 67). They were added just prior to the addition of either TGF-beta or PDGF, depending on the experiment."}, "MMP-1": {"system": "MMP-1", "test": "MMP-1 production by human skin fibroblasts", "assay_type": "cell-based", "source_text": "as §1, §2, §3"}, "TIMP-1": {"system": "TIMP-1", "test": "TIMP-1 production by human skin fibroblasts", "assay_type": "cell-based", "source_text": "as §1, §2\nNext we created and tested for efficacy, additional CCNp including those with the cysteines intact (native sequence) from CCNp37 and CCNp38 and those that were modified by either shortening the peptide by 1 or 2 amino acids or lengthening by one amino acid. […]"}, "pro-collagen type 1": {"system": "pro-collagen type 1", "test": "pro-collagen type 1 production by human skin fibroblasts", "assay_type": "cell-based", "settings": "TGF-beta, 10 nM, FIG. 21", "source_text": "To test this we used a cell culture model of skin healing/scarring, which employed the use of primary human skin fibroblasts derived from foreskins collected post circumcision. These have been used extensively in the past to grown in culture and treated with agents that are known to drive wound healing and or scarring. We were also interested in a rare form of skin fibrosis/scarring that can lead to systemic disease and death known as nephrogenic systemic fibrosis (NSF). NSF is a complication of NMR diagnostics in renal impaired patients, where gadolinium (GAD), a heavy metal, is used as a contrast agent, but in some cases appears to deposit in skin. Although the mechanism for development of skin fibrosis and subsequent systemic disease is not yet completely understood, we have developed a model that has allowed elucidation of the probable pathway to skin fibrosis (Bhagavathula, N., M. K. Dame, M. DaSilva, W. Jenkins, M. N. Aslam, P. Perone and J. Varani (2010)). “Fibroblast response to gadolinium: role for platelet-derived growth factor receptor.” Invest Radiol 45(12): 769-777). This disease is characterized as a hyperproliferative disease, and in our model it was shown that PDGF produced by resident skin fibroblasts are stimulated by GAD to increase their production of PDGF which acts to induce proliferation and the increased production of MMPs, regulators of ECM breakdown and thus turnover, including the major MMP, MMP-1. At the same time tissue inhibitors of MMPs (TIMPs) are also affected by exposure to GAD. […]\nWe examined the role of CCN3 and CCNp in fibroproliferative/fibrotic responses in human dermal fibroblasts exposed to Omniscan, one of the gadolinium-based contrast agents associated with development of nephrogenic systemic fibrosis. […] Cellular proliferation was assessed along with MMP-1 (by ELISA and gelatin zymography), TIMP-1 (by ELISA) and COL1 (by ELISA) in the absence and presence of CCN3 and CCNp. […] In parallel, CCN3 production was assessed in control and Omniscan-treated cells. […]"}, "BTBR Ob/Ob mouse": {"system": "BTBR Ob/Ob mouse", "test": "BTBR Ob/Ob mouse as model of liver disease", "assay_type": "in vivo", "settings": "8 weeks of treatment", "procedure": "This was carried out using the BTBR Ob/Ob mouse strain that has a defective leptin receptor that results in increased appetite. As a result it rapidly gains weight over the control strain and becomes hyperglycemic at about one month of age, going on to develop renal disease resembling that in humans. This is regarded by some to be the rodent model best mirroring renal disease in humans as a complication of diabetes. Animals were treated with either rCCN3 (SEQ. ID. NO: 67) or CCNp38 (SEQ. ID. NO: 38) beginning at 9 weeks of age, when early renal disease has been documented. The disease was allowed to develop for 9 weeks, then treatment started. Mice were treated 3 times per week for 8 weeks. At 17 weeks, blood and urine were collected, and animals sacrificed with organ samples collected. The effect of treatment with either CCN3 (2 concentrations, 2 or 20× the circulating amounts) or mimic peptide (CCNp38, 2 concentrations, 20 or 200× the equivalent molar circulating concentration of CCN3) was tested. Assays to determine the effect of CCN3 or peptide on expression of target fibrosis genes and clinical pathology were determined using methods as previously described (Riser, Amer J Pathology 2009) and (McIntosh, L M, et al., Selective CCR2-targeted macrophage depletion ameliorates experimental mesangioproliferative glomerulonephritis, Clinical and Experimental Immunology, 2008, 155, 295-303).\nSince a common complication of diabetes is fatty liver, hepatitis, NASH, and in some cases liver fibrosis, we used the BTBR Ob/Ob mouse experiments described above as a model of human liver disease to examine the possibility that CCN3 or more particularly CCNp peptides might provide a treatment to prevent, treat, or reverse the liver disease described above."}},
  "note": "Entries after “also recorded” stand apart in the source; their conditions may differ.",
  "data": [
    {"molecule": "CCN3: full-length recombinant human CCN3 protein (SEQ. ID. No. 67), commercial (Pepro Tech) or made in HEK-293 (protein) MQVAATQRCPPQCPGRCPATPPTCAPGVRAVLDGCSCCLVCARQRGESCSDLEPCDESSGLYCDRSADPSNQTGICTAVEGDNCVFDGVIYRSGEKFQPSCKFQCTCRDGQIGCVPRCQLDVLLPEPNCPAPRKVEVPGECCEKWICGPDEEDSLGGLTLAAYRPEATLGVEVSDSSVNCIEQTTEWTACSKSCGMGFSTRVTNRNRQCEMLKQTRLCMVRPCEQEPEQPTDKKGKKCLRTKKSLKAIHLQFKNCTSLHTYKPRFCGVCSDGRCCTPHNTKTIQAEFQCSPGQIVKKPVMVIGTCTCHTNCPKNNEAFLQELELKTTRGKM", "values": [
      {"measurement": "inhibition of PDGF-stimulated proliferation, comparison of modifications", "setting": "human skin fibroblasts; 1 nM to 100 nM, FIGS. 22-24", "value": "dose-dependent efficacy"},
      {"measurement": "reduction in PDGF-stimulated proliferation", "setting": "human skin fibroblasts; 1 nM, FIG. 22", "value": "slightly decreased proliferation"},
      {"measurement": "reduction in PDGF-stimulated proliferation", "setting": "human skin fibroblasts; 10 nM, FIG. 23", "value": 33, "unit": "%"},
      {"measurement": "reduction in PDGF-stimulated proliferation", "setting": "human skin fibroblasts; 100 nM, FIG. 24", "value": 46, "unit": "%"},
      {"measurement": "block of PDGF-stimulated fibroblast proliferation", "setting": "human skin fibroblasts; PDGF, 10 nM, FIG. 15", "value": "this stimulation is blocked"},
      {"measurement": "effect on baseline cell growth", "setting": "human skin fibroblasts; TGF-beta (does not stimulate proliferation), FIG. 16", "value": "neither CCN3 (SEQ. ID. No. 67) nor CCNp38-3 (Seq. ID. No. 56) has an effect on baseline cell growth"},
      {"measurement": "block of PDGF stimulated MMP-1 production", "setting": "MMP-1; 1 nM, FIG. 25", "value": "able to block little or no MMP-1 production"},
      {"measurement": "reduction in PDGF stimulated MMP-1 production", "setting": "MMP-1; 10 nM, FIG. 26", "value": 27, "unit": "%"},
      {"measurement": "reduction in PDGF stimulated MMP-1 production", "setting": "MMP-1; 100 nM, FIG. 27", "value": 30, "unit": "%"},
      {"measurement": "block of PDGF-induced increase in MMP-1 activity", "setting": "MMP-1; PDGF, 10 nM, FIG. 17", "value": "able to block that increase"},
      {"measurement": "effect on MMP-1 with TGF-beta", "setting": "MMP-1; TGF-beta (no stimulating effect), FIG. 18", "value": "no effect"},
      {"measurement": "block of PDGF stimulated TIMP-1 production", "setting": "TIMP-1; FIGS. 28-30", "value": "unable to block the increase in TIMP-1"},
      {"measurement": "block of PDGF-induced increase in TIMP-1 production", "setting": "TIMP-1; PDGF, 10 nM, FIG. 19", "value": "neither CCNp38-3 (Seq. ID. No. 56) nor CCN3 (SEQ. ID. No. 67) is able to block or reduce the increase in TIMP-1 production"},
      {"measurement": "effect on TIMP-1 production with TGF-beta", "setting": "TIMP-1; TGF-beta (fails to stimulate), FIG. 20", "value": "neither CCNp38-3 nor CCN3 have an effect; also recorded: neither CCNp38-3 or CCN3 have an effect"},
      {"measurement": "block of TGF-beta-induced increase in pro-collagen production", "setting": "pro-collagen type 1", "value": "completely block the increase"},
      {"measurement": "effect on increased liver weight", "setting": "BTBR Ob/Ob mouse; FIG. 41", "value": "slightly reduces this increase"},
      {"measurement": "effect on increased liver mRNA levels for CCN2", "setting": "BTBR Ob/Ob mouse; liver, two doses, FIG. 42", "value": "greatly reduces or blocks the increase in a dose-dependent manner"},
      {"measurement": "effect on increased liver mRNA levels for Col1A2", "setting": "BTBR Ob/Ob mouse; liver, two doses, FIG. 43", "value": "dose-dependently reduced, or blocked the increase in collagen expression; also recorded: reduced"}
    ]}
  ]
}
